Columns and labels:
[1] = target: T1, peptide 87; assay: Biacore T200, 7A9 immobilized on CM5 chip, peptide as analyte, blank-subtracted relative response
T1 construct: 12-mer from the C-terminus of GRP78
T1 peptide: KKELEEIVQPII
Procedure: (§1) FIG. 6A depicts a graph of the relative response binding of 7A9. Epitope mapping was performed using Biacore T200. 7A9 was immobilized on the CM5 sensor chip and peptides 86-90 (overlapping peptides in the immunogen region of 7A9) were passed as analyte. Relative binding response (response on blank channel subtracted from the 7A9 immobilized channel) of each peptide to 7A9 was analyzed using the BIAevaluation software. Cut-off for nonbinding peptides is 0 RU. […] The figure was generated using Pymol software (SEQ ID NO: 70).
(§2) FIG. 6A-6B Epitope mapping of 7A9 antibody was performed using Biacore T200. 7A9 was immobilized on the CM5 sensor chip and peptides 86-90 (overlapping peptides in the immunogen region of 7A9) were passed as analyte. Relative binding response (response on blank channel subtracted from the 7A9 immobilized channel) of each peptide to 7A9 was analyzed using the BIAevaluation software. Cut-off for nonbinding peptides is 0 RU. Three-dimensional model of GRP78 protein indicating the epitope sequence on the protein in red color. The figure was generated using Pymol software.

[2] = target: T2, peptide 86; assay: as above
T2 construct: 12-mer from the C-terminus of GRP78
T2 peptide: IEDFKAKKKELE
Procedure: as §1, §2

[3] = target: T3, peptide 89; assay: as above
T3 construct: 12-mer from the C-terminus of GRP78
T3 peptide: LYGSAGPPPTGE
Procedure: as §1, §2

[4] = target: T4, 78-kDa glucose-regulated protein (GRP78) (UniProt P11021 19-654); assay: flow cytometry, H460 cells, gMFI, one site-specific binding fit; no unit beside the number, x axis in nM; all points lie at gMFI about 1000-1400, so the fit rests on no point of the rising part
T4 construct: 'peptides 86-90' in Biacore; also called BiP; HSP5a
T4 sequence (P11021 19-654 limits assumed): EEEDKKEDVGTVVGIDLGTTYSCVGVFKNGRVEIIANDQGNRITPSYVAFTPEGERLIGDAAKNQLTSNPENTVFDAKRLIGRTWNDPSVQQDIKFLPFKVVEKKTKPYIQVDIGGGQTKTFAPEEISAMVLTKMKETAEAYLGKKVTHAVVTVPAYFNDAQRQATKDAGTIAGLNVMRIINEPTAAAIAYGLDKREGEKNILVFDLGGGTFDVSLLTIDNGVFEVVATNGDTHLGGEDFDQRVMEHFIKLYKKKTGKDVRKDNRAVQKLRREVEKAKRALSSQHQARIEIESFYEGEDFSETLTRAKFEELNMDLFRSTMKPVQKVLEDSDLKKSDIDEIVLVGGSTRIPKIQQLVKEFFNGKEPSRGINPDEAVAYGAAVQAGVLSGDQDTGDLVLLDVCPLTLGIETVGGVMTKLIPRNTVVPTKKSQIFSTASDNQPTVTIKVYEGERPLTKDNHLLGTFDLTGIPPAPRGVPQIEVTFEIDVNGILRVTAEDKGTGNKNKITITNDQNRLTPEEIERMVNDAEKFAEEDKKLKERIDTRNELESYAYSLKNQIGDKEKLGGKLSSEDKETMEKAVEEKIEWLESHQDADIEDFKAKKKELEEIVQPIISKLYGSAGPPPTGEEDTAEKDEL
Procedure: (§3) FIG. 11A-11B show flow cytometry for cell surface binding of 7A9 antibody to H460 cells. FIG. 11A is the flow cytometry assay for cell surface binding of 7A9 antibody to H460 cells. Binding conditions: 0.1×10⁶ cells incubated with 3-fold dilutions of antibody started at 1.0 μM. Cells were washed 2× with FACS buffer. Stained with secondary antibody. Washed twice and analyzed in FACS buffer by flow cytometer FACS Canto II (BD). Geometric mean fluorescence intensity was fitted using the One site-specific binding in Graphpad Prism software.

[5] = target: T4, 78-kDa glucose-regulated protein (GRP78); assay: flow cytometry, H460 cells, gMFI, 4PL fit; x axis of panel B is printed 'Log10 [6F8] nM' although title and legend say 7A9
Procedure: as §3, with “Geometric mean fluorescence intensity was fitted using the One site-specific binding in Graphpad Prism software.” left out

[6] = target: T5, peptide 90; assay: peptide dot blot on nitrocellulose, chemiluminescence
T5 construct: 12-mer from the C-terminus of GRP78
T5 peptide: PPTGEEDTAEKD
Procedure: Seven peptides were synthesized from the c-terminus of GRP78. Each peptide was a 12-mer with 5 amino acid overlap. Each of the peptide was coated in duplicate on nitrocellulose membrane and incubated with 7A9 antibody. After washing, the blot was developed using chemiluminescence. The arrows indicate positive spot.
(§4) Seven peptides were synthesized from the c-terminus of GRP78. Each peptide was a 12-mer with 5 amino acid overlap. The sequences of the peptides are shown above. Each of the peptide was coated in duplicate on nitrocellulose membrane and incubated with 7A9 antibody. After washing, the blot was developed using chemiluminescence. The arrows indicate positive spot, FIG. 4. 7A9 epitope: SEQ ID NO: 70 ([…] . . . EDTAE). FIG. 5A-5B Epitope mapping of 6F8 antibody was performed using Biacore T200. 6F8 was immobilized on the CM5 sensor chip and peptides 86-90 (overlapping peptides in the immunogen region of 6F8) were passed as analyte. Relative binding response (response on blank channel subtracted from the 6F8 immobilized channel) of each peptide to 6F8 was analyzed using the BIAevaluation software. Cut-off for nonbinding peptides is 0 RU. Three-dimensional model of GRP78 protein indicating the epitope sequence on the protein in magenta color. The figure was generated using Pymol software.

[7] = target: T4, 78-kDa glucose-regulated protein (GRP78); assay: flow cytometry, A549 cells, gMFI minus secondary only, one site-specific binding fit; no unit beside the number, x axis in nM
Procedure: (§5) FIG. 7A-7B show graphs of flowcytometry data for the cell surface binding of GRP78 antibodies. […] Binding conditions: 0.1×10⁶ cells incubated with 3-fold dilutions of antibody started at 2.22 μM. Cells were washed 2× with FACS buffer. Stained with secondary antibody. Washed twice and analyzed in FACS buffer by flow cytometer FACS Canto II (BD). Geometric mean fluorescence intensity was fitted using the “One site-specific binding” in Graphpad Prism software.
(§6) A Flow cytometry assay for cell surface binding of 6F8 antibody to A549 cells was done (FIG. 7A-7B). Binding conditions: 0.1×10⁶ cells incubated with 3-fold dilutions of antibody started at 2.22 μM. Cells were washed 2× with FACS buffer. Stained with secondary antibody. Washed twice and analyzed in FACS buffer by flow cytometer FACS Canto II (BD). Geometric mean fluorescence intensity was fitted using the “One site-specific binding” in Graphpad Prism software. Graph showing the same data as in A fitted using the “Sigmoidal, 4PL, X is log(concentration)” in Graphpad Prism software (FIG. 7B).

[8] = target: T4, 78-kDa glucose-regulated protein (GRP78); assay: flow cytometry, H460 cells, gMFI minus secondary only, one site-specific binding fit; no unit beside the number, x axis in nM
Procedure: as §3, with “9A-9B are graphs showing the” for “11A-11B show flow cytometry for”, “6F8” for “7A9 antibody”, “FIG. 11A is the flow cytometry assay for cell surface binding of 7A9 antibody to H460 cells.” left out, “0.1×10^6” for “0.1×10⁶”, “0.7” for “1.0”

[9] = target: T6, C-terminal GRP78 peptide; assay: ELISA on C-terminal GRP78 peptide
T6 construct: name from the legend, the sheet prints only 'GRP78 Hybridoma ELISA'
T6 sequence (P11021 other isoform, or with tags, fused parts or gaps): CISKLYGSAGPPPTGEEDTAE

[10] = target: T1, peptide 87; assay: Biacore T200, 6F8 immobilized on CM5 chip, peptide as analyte, blank-subtracted relative response
Procedure: as §1, with “5A-5B show the epitope mapping of 6F8 antibody. FIG. 5A” for “6A”, “binding.” for “binding of 7A9.”, “6F8” for “7A9”, “6F8)” for “7A9)”, “71).” for “70).”
as §4

[11] = target: T2, peptide 86; assay: as above
Procedure: as §1, with “5A-5B show the epitope mapping of 6F8 antibody. FIG. 5A” for “6A”, “binding.” for “binding of 7A9.”, “6F8” for “7A9”, “6F8)” for “7A9)”, “71).” for “70).”
as §4

[12] = target: T3, peptide 89; assay: as above
Procedure: as §1, with “5A-5B show the epitope mapping of 6F8 antibody. FIG. 5A” for “6A”, “binding.” for “binding of 7A9.”, “6F8” for “7A9”, “6F8)” for “7A9)”, “71).” for “70).”
as §4

[13] = target: T7, peptide 88; assay: as above
T7 construct: 12-mer from the C-terminus of GRP78
T7 peptide: VQPIISKLYGSA
Procedure: as §1, with “5A-5B show the epitope mapping of 6F8 antibody. FIG. 5A” for “6A”, “binding.” for “binding of 7A9.”, “6F8” for “7A9”, “6F8)” for “7A9)”, “71).” for “70).”
as §4

[14] = target: T5, peptide 90; assay: as above
Procedure: as §1, with “5A-5B show the epitope mapping of 6F8 antibody. FIG. 5A” for “6A”, “binding.” for “binding of 7A9.”, “6F8” for “7A9”, “6F8)” for “7A9)”, “71).” for “70).”
as §4

[15] = target: T4, 78-kDa glucose-regulated protein (GRP78); assay: flow cytometry, A549 cells, gMFI minus secondary only, 4PL fit
Procedure: as §5, §6

[16] = target: T4, 78-kDa glucose-regulated protein (GRP78); assay: flow cytometry, H460 cells, gMFI minus secondary only, 4PL fit
Procedure: FIG. 9A-9B are graphs showing the cell surface binding of 6F8 to H460 cells. […] Binding conditions: 0.1×10^6 cells incubated with 3-fold dilutions of antibody started at 0.7 μM. Cells were washed 2× with FACS buffer. Stained with secondary antibody. Washed twice and analyzed in FACS buffer by flow cytometer FACS Canto II (BD). […]

B1: 7A9 anti-GRP78 mouse monoclonal antibody (antibody, V domains shown)
VH: EVQLVETGGGLVQPKGSLKLSCAVSGITFNINAMNWVRQAPGKGLEWVARIRSKSNNYATYYADSVKDRFTISRDDSQSMLYLQMNNLKTEDTAMYYCVRDITRAGYFDVWGAGTTVTVSS
VL: QIVLTQSPAIMSASPGEKVTITCSASSSVIYMHWFQQKPGTSPKLWIYSTSNLASGVPARFSGSGSGTSYSLTISRMEAEDAATYYCQQRSSYPLTFGAGTKLELK
binding result [1]: no binding
binding result [2]: no binding
binding result [3]: no binding
Kd [4]: 0.108 nM
EC50 (read off the curve) [5]: ~40 nM
binding result [6]: binds

B2: 6F8 anti-GRP78 mouse monoclonal antibody (antibody, V domains shown)
VH: EVQLVESGGGLVRPKGSLKLSCAASGFTLNTSAMNWVRQVPGKGLEWVGRIRSKNYNYATYYADSVKDRFTIFRDDSQNMLYLQMNNLKTEDTAMYYCVRPPGFAYWGQGTLVTVSA
VL: DIQMTQSPSSLSASLGERVSLTCRTSQEISGHLSWLQQKPDGTIKRLIYAASSLDSGVPKRFSGSRSGSDYSLTISSLESEDFADYYCLQYSSYPYTFGGGTKLEIK
Kd [7]: 16.4 nM
Kd [8]: 35.8 nM
EC50 (read off the curve) [9]: ~1000 nM
binding result [10]: no binding
binding result [11]: no binding
binding result [12]: no binding
binding result [13]: no binding
binding result [14]: binds
EC50 (read off the curve) [15]: ~50 nM
EC50 (read off the curve) [16]: ~100 nM

From US20220259322A1 (WASHINGTON UNIVERSITY, published 2022)
